5 molecules from article PMC8860596 (Nucleic Acids Research, 2021) can be followed below.

Data set [1] deals with T1, CreYin;CreYang (P1 phage;P1 phage, UniProt P06956;P06956 1-343;1-343, D33A;A36V;R192A|R72E;L115D;R119D). The data set can be described thus: EMSA. (In general: A gel shift assay detects complexes by their altered migration in electrophoresis.)
The target of data set [2] is T2, CreYin (P1 phage, UniProt P06956 1-343, D33A;A36V;R192A). Description: EMSA.
For data set [3], the target named is T3, CreYang (P1 phage, UniProt P06956 1-343, R72E;L115D;R119D). Description: EMSA.
Data set [4] deals with Cre deltaN (CreΔαN) (P1 phage, UniProt P06956 1-330). Description: EMSA.
In data set [5] the target is T4, Cre K201A (P1 phage, UniProt P06956 1-343, K201A). The data set can be described thus: EMSA.
Data set [6] concerns the molecule itself. The data set can be described thus: native gel or EMSA.
In data set [7] the target is T1, CreYin;CreYang. Description: cryo-EM.
Data set [8] deals with T4, Cre K201A. The data set can be described thus: cryo-EM.
Data set [9] deals with T2, CreYin. Description: cryo-EM.
Data set [10] has as its target T3, CreYang. The data set can be described thus: native MS.
The target in data set [11] is T1, CreYin;CreYang. Description: native MS.
Data set [12] concerns the target T2, CreYin. Description: native MS.

B1: loxP-54 (dsDNA)
DNA 1: CGAGTGGCCGATAACTTCGTATAATGTATGCTATACGAAGTTATGCGGCGTGAC
DNA 2: GTCACGCCGCATAACTTCGTATAGCATACATTATACGAAGTTATCGGCCACTCG
For the molecule B1, the binding result in [1], in data set [2], in data set [3], in [4] and in data set [5] was “binds” throughout.

B2: Cre recombinase K201A (cleavage-deficient variant) (enzyme, P1 phage)
chain: MSNLLTVHQNLPALPVDATSDEVRKNLMDMFRDRQAFSEHTWKMLLSVCRSWAAWCKLNNRKWFPAEPEDVRDYLLYLQARGLAVKTIQQHLGQLNMLHRRSGLPRPSDSNAVSLVMRRIRKENVDAGERAKQALAFERTDFDQVRSLMENSDRCQDIRNLAFLGIAYNTLLRIAEIARIRVKDISRTDGGRMLIHIGRTATLVSTAGVEKALSLGVTKLVERWISVSGVADDPNNYLFCRVRKNGVAAPSATSQLSTRALEGIFEATHRLIYGAKDDSGQRYLAWSGHSARVGAARDMARAGVSIPEIMQAGGWTNVNIVMNYIRNLDSETGAMVRLLEDGD
Take B2: the stoichiometry N (usually a count of units in the complex or per binding partner) in [6] was 4.

B3: loxP-44 (dsDNA)
DNA 1: CGGCGATAACTTCGTATAATGTATGCTATACGAAGTTATGCGGC
DNA 2: GCCGCATAACTTCGTATAGCATACATTATACGAAGTTATCGCCG
Turning to B3, the binding result in [7] and in [8] was “binds” each time.

B4: loxA hairpin (structured_DNA)
DNA: GCATAACTTCGTATAGCATATGCGAAGCATATGCTATACGAAGTTATGC
For B4, in [9], the binding result is reported as “binds”.

B5: loxP-38 (dsDNA)
DNA 1: CGATAACTTCGTATAATGTATGCTATACGAAGTTATGC
DNA 2: GCATAACTTCGTATAGCATACATTATACGAAGTTATCG
Regarding B5, the binding result in [10], in data set [11] and in [12] was “binds” throughout.
